“Also recorded” adds a separate entry of the source.
Experiments:
Assay type in all cases: cell-based, human
Hep G2 cells [1] = assay: Uptake of DiL-LDL by Hep G2 cells (fluorescence microscope, flow cytometry); conditions: 10 h
Procedure: (§1) Materials: sDSS1 protein, DiL-oxLDL, DiL-LDL (ThermoFisher, L3482), human hepatoma cell Hep G2 (Cell Bank of Typical Culture Preservation Committee of Chinese Academy of Sciences, Catalog Number: SCSP-510).
(§2) Experimental method: (1) When detecting the phagocytosis of oxLDL by Hep G2 cells, Hep G2 cells were inoculated into a 6-well plate with 250000 cells per well. After 12 h, all the cells were adhered. The old culture medium was discarded. 1.5 ml 10 μg/ml DiL-oxLDL was added, or 1.5 ml 10 μg/ml DiL-oxLDL was added together with 5 μg/ml and 50 μg/ml of the sDSS1 protein. After incubation for 9 h in the incubator, the fluorescence signal in the cells was observed by a fluorescence microscope. The cells were digested by trypsin to form single cells for detecting fluorescence intensity via flow cytometry. (2) When detecting the phagocytosis of LDL by Hep G2 cells, Hep G2 cells were inoculated into a 6-well plate with 250000 cells per well. After 12 h, all the cells were adhered. The old culture medium was discarded. 1.5 ml 10 μg/ml DiL-LDL was added, or 1.5 ml 10 μg/ml DiL-LDL was added together with 5 μg/ml and 50 μg/ml of the sDSS1 protein. After incubation for 10 h in the incubator, the fluorescence signal in the cells was observed by fluorescence microscope. The cells were digested by trypsin to form single cells for detecting fluorescence intensity via flow cytometry.

Hep G2 cells [2] = assay: Uptake of DiL-oxLDL by Hep G2 cells (fluorescence microscope, flow cytometry); conditions: 9 h
Procedure: as §1, §2

[3] = system: macrophages differentiated from monocyte THP-1; assay: Phagocytosis of DiL-oxLDL by macrophages differentiated from THP-1 (fluorescence microscope, flow cytometry); conditions: 10 μg/ml DiL-oxLDL, 5 h
Procedure: Experimental materials: sDSS1 protein, DiL-oxLDL, phorbol ester (PMA, Sigma Aldrich, Article No.: P1585), human monocyte THP-1 (Cell Bank of Typical Culture Preservation Committee of Chinese Academy of Sciences, Catalog No.: SCSP-567).
Experimental method: THP-1 cells were inoculated into a 6-well plate with 250000 cells per well, and the culture solution contained 100 ng/mL PMA. After being activated by PMA for 48 h, the cells were cultured in a fresh culture medium for 4 days to facilitate cell adhesion. The old culture medium was discarded. 1.5 ml 10 μg/ml DiL-oxLDL was added, or 1.5 ml 10 μg/ml DiL-oxLDL was added together with 2 μg/ml, 5 μg/ml, 10 μg/ml, or 20 μg/ml of the sDSS1 protein. After incubation for 5 h in an incubator, the fluorescence signal in the cells was observed by a fluorescence microscope. The cells were digested by trypsin to form single cells for detecting fluorescence intensity via flow cytometry.

[4] = 50 μg/ml sDSS1 protein, 10 μg/ml DiL-LDL

B1: sDSS1 protein: sDSS1 protein produced by the company itself, purity more than 95%; sequence of human sDSS1 protein is SEQ ID NO:1 (protein, listed as Homo sapiens)
chain: MSEKKQPVDLGLLEEDDEFEEFPAEDWAGLDEDEDAHVWEDNWDDDNVEDDFSNQLRATVLLMILVCETPYGCYVLHQKGRMCSAFLCC
Hep G2 cells [1]; 5 μg/ml sDSS1, 10 μg/ml DiL-LDL
  Intensity of Dil fluorescence in Hep G2 cells, DiL-LDL (flow cytometry): basically consistent
Hep G2 cells [1]; 5 μg/ml sDSS1, 10 μg/ml DiL-LDL, listed as sDSS1
  Intensity of Dil fluorescence in Hep G2 cells, DiL-LDL (flow cytometry): could not cause significant changes
Hep G2 cells [1]; 5 μg/ml sDSS1 protein, 10 μg/ml DiL-LDL
  Quantity of Hep G2 cells uptaking DiL-LDL (fluorescence microscope): not changed significantly
Hep G2 cells [1]; 5 μg/ml sDSS1 protein, 10 μg/ml DiL-LDL, listed as sDSS1
  Quantity of Hep G2 cells uptaking DiL-LDL (fluorescence microscope): no significant difference
Hep G2 cells [1]; [4]
  Intensity of Dil fluorescence in Hep G2 cells, DiL-LDL (flow cytometry): basically consistent; also recorded: could not cause significant changes
  Quantity of Hep G2 cells uptaking DiL-LDL (fluorescence microscope): not changed significantly
Hep G2 cells [1]; 50 μg/ml sDSS1 protein, 10 μg/ml DiL-LDL, listed as sDSS1
  Quantity of Hep G2 cells uptaking DiL-LDL (fluorescence microscope): no significant difference
Hep G2 cells [2]; 5 μg/ml sDSS1, 10 μg/ml DiL-oxLDL
  DiL fluorescence level within Hep G2 cells, DiL-oxLDL (flow cytometry): does not significantly affect; also recorded: did not significantly affect
Hep G2 cells [2]; 50 μg/ml sDSS1 protein, 10 μg/ml DiL-oxLDL
  DiL signal intensity in Hep G2 cells, DiL-oxLDL (flow cytometry): significantly increase
[3]; 2 μg/ml sDSS1 protein
  Macrophages having fluorescence (flow cytometry): not detected; also recorded: basically didn't appear
[3]; 10 μg/ml sDSS1 protein
  Macrophages having fluorescence (flow cytometry): not detected; also recorded: basically didn't appear
[3]; sDSS1 protein added (2 and 10 μg/ml)
  Fluorescence in macrophages (fluorescence microscope): no obvious fluorescence was observed in the cells, or the fluorescence was very weak; also recorded: basically no obvious fluorescent signals were observed
